This series deals with Vimentin (UniProt P08670 2-466). Briefly: SERS strand-displacement sensor (signal decrease on Vimentin addition); competes with hybridized complementary strand S3 (5-FAM); binding buffer, salt, pH and temperature not given in the material; aptamer on Au/Si CCA, complementary strand on AuNCs, 6-MCH blocking. The following applies: label: none on the aptamer; reporter 5-FAM is on the complementary strand S3; before protein addition hybridized over its 3' 18 nt to SH-S3-5-FAM on Au nanocubes.

This is an account of results in paper PMC10733448, “An aptamer and Au/Si CCA based SERS sensor for ultra-sensitive detection of Vimentin during EMT in gastric cancer”.

Chain of Vimentin (P08670 2-466): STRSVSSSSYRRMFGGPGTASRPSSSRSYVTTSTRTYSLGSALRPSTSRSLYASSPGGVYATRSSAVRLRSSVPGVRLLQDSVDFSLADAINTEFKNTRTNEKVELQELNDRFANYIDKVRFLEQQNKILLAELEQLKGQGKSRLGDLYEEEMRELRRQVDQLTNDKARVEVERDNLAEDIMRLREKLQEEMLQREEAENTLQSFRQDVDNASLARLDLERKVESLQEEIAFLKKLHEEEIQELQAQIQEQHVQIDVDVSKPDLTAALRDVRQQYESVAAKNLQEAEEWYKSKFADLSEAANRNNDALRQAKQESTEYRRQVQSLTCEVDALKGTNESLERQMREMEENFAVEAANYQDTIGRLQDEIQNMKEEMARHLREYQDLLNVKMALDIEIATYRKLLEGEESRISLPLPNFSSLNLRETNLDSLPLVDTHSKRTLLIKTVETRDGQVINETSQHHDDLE

B1: Vimentin aptamer (ssDNA)
DNA: TAGACCCAGCTGGTCCGGAAAATAAGATGTCACGGATCCTC
modifications: thiol (SH) printed at 5' end
With B1, the binding result is reported as “binds”.
